Laboratory results published in paper doi:10.1101/2022.09.26.509586.

Target: piggyBac transposase residues 1-558 (PB1-558) (cabbage looper moth)
Assay: AUC

stoichiometry N: 2
Substance: piggyBac transposase residues 1-558 (PB1-558) (domain or fragment)
